The subject of the assay is C. albicans. The assay is described as follows: Broth microdilution, impact of protease inactivation conditions (growth %). It is filed as cell-based, Candida albicans. On the technique in general: In broth dilution the organism is exposed to a series of concentrations in liquid medium.

B1: Proteinase K: protease, applied alone as control after thermal inactivation (protein, UniProt P06873 106-384, looked up)
Proteinase K: AAQTNAPWGLARISSTSPGTSTYYYDESAGQGSCVYVIDTGIEASHPEFEGRAQMVKTYYYSSRDGNGHGTHCAGTVGSRTYGVAKKTQLFGVKVLDDNGSGQYSTIIAGMDFVASDKNNRNCPKGVVASLSLGGGYSSSVNSAAARLQSSGVMVAVAAGNNNADARNYSPASEPSVCTVGASDRYDRRSSFSNYGSVLDIFGPGTSILSTWIGGSTRSISGTSMATPHVAGLAAYLMTLGKTTAASACRYIADTANKGDLSNIPFGTVNLLAYNNYQA
modifications: heat-inactivated
Turning to B1, the “Growth [%]” value (0.125 µM protease alone + 100 °C, 15 min) is given as 86 ± 4.5%.

B2: Trypsin: protease, applied alone as control after neutralization with 1.25% FCS (protein, UniProt P00760 24-246, looked up)
Serine protease 1: IVGGYTCGANTVPYQVSLNSGYHFCGGSLINSQWVVSAAHCYKSGIQVRLGEDNINVVEGNEQFISASKSIVHPSYNSNTLNNDIMLIKLKSAASLNSRVASISLPTSCASAGTQCLISGWGNTKSSGTSYPDVLKCLKAPILSDSSCKSAYPGQITSNMFCAGYLEGGKDSCQGDSGGPVVCSGKLQGIVSWGSGCAQKNKPGVYTKVCNYVSWIKQTIASN
Regarding B2, where the note is “0.125 µM protease alone + 1.25 % FCS”, the “Growth [%]” value came out at 136.7 ± 14%.

The values above are taken from PMC8226839, “New Perspectives in the Antimicrobial Activity of the Amphibian Temporin B: Peptide Analogs Are Effective Inhibitors of Candida albicans Growth” (Journal of Fungi, 2021).
